Measurements as given in patent publication CN111748039A.

Biological target: 重组CEA蛋白 (UniProt P06731)
UniProt P06731, sequence (P06731 35-685 limits assumed): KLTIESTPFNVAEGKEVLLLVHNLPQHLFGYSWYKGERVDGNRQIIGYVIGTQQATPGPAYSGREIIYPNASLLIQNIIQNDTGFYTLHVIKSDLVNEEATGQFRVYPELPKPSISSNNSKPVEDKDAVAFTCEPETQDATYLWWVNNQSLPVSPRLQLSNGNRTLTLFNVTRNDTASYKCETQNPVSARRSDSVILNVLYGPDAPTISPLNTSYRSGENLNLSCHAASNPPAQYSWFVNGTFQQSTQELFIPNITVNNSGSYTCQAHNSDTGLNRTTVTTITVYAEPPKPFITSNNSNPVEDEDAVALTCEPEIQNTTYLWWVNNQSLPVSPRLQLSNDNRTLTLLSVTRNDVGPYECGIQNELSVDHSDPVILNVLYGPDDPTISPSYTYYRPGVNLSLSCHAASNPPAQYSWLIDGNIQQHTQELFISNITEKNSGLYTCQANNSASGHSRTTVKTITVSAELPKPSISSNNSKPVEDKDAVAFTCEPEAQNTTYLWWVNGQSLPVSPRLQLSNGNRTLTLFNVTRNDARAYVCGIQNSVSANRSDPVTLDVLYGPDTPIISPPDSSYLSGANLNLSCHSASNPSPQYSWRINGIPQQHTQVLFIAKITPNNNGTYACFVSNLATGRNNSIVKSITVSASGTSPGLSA

B1: 1#单抗 (antibody, mouse IgG1, kappa, V domains shown)
VH: QIQLVQSGPELKKPGETVKISCKTSGYTFTNYAMNWVKQAPGKGLKWMGWINTNTGEPTYAEEFKGRFAFSLETSATAAYLQINNLKNDDTASYFCARGWVLYAMDYWGQGTSVTVSS
VL: DIQMTQTTSSLSASLGDRVTISCRASQDISNYLNWYQQKSDGTVKLLIYYTSRLHSGVPSRFSGSGSGTDYSLTISNLDPEDVATYFCQQGDMFMFGGGTKLEIRT
效价 (titer): 100000
